Reference: article PMC9426509

Target: Echovirus 18 (E18) mature (full) virus particle, strain HeB15-254 (echovirus 18 (strain HeB15-254))
Assay: SPR; Biacore 3000, 25 C; biotinylated full E18 particles in PBS with Tween immobilised on streptavidin (SA) chips; FcRn or CD55 flowed at 31.25 nM to 2,000 nM; pH 7.4; 1:1 binding model

Substance “soluble ectodomain of human neonatal Fc receptor (FcRn): FCGRT (A16-L282) with B2M (from UniProt P61769 21-119) (complex)” has a Kd of 0.343 µM.
